Laboratory results from patent publication US20100303724A1.

Key:
biotin-collagelin [1] = experiment: SPR; biotin-collagelin on a streptavidin sensorchip, IgG 1.25 to 10 µg/mL
biotin-collagelin [2] = experiment: SPR
biotin-collagelin [3] = experiment: SPR; collagen injected on biotin-collagelin on a streptavidin sensorchip

biotin-collagelin, sequence (peptide, as listed by the source): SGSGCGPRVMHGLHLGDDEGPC

Substance: anti-human platelet GPVI 9O12.2 IgG (antibody)
- Kd (biotin-collagelin [1]): 1 µM

Substance: murine laminin (Gibco)
- Kd (biotin-collagelin [2]): 18.3 µM

Substance: type I equine fibrillar collagen (Collagen Horm, Nycomed)
- RU bound (biotin-collagelin [3]): 10 RU
